T1: GII.17/2015 VLP (norovirus Hu/GII.17/HKG/2015/CUHK-NS-513)
T1 construct: also called Hu/GII.17/HKG/2015/CUHK-NS-513
T1 chain: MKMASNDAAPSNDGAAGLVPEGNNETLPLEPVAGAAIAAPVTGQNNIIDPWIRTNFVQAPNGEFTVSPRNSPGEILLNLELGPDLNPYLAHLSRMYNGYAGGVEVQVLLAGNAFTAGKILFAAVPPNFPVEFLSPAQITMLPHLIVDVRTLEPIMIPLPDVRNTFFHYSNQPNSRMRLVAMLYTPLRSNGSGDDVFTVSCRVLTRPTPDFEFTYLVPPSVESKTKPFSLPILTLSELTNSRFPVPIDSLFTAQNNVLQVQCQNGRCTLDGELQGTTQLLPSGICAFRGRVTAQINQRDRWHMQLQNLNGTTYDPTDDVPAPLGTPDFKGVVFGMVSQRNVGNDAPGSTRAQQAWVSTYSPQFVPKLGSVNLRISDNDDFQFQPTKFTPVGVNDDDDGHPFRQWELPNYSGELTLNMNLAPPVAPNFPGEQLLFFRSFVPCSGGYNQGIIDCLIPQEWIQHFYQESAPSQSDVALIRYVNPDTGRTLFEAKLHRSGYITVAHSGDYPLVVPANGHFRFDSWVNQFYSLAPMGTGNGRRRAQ

T2: GII.4/Sydney VLP (norovirus …, UniProt P54635 1-538)
T2 construct: also called Hu/GII.4/Sydney/NSW0514/2012/AU
T2 chain: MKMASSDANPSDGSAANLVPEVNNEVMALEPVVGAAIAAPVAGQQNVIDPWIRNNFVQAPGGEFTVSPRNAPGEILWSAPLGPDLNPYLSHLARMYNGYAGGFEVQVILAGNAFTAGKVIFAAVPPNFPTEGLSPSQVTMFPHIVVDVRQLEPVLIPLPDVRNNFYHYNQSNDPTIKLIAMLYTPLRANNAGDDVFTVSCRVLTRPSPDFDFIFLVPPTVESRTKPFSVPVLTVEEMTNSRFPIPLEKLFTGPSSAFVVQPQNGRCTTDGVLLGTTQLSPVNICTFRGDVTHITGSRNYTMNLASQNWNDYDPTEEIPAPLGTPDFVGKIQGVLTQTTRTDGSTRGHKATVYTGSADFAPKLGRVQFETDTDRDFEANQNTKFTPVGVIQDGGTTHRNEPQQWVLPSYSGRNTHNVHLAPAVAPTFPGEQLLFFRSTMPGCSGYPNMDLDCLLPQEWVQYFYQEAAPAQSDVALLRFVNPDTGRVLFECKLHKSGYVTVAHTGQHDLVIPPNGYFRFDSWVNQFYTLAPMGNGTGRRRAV

T3: GII.4/Yerseke VLP (norovirus Hu/GII.4/Yerseke38/2006/NL, UniProt P54635 1-539)
T3 construct: also called Hu/GII.4/Yerseke38/2006/NL
T3 chain: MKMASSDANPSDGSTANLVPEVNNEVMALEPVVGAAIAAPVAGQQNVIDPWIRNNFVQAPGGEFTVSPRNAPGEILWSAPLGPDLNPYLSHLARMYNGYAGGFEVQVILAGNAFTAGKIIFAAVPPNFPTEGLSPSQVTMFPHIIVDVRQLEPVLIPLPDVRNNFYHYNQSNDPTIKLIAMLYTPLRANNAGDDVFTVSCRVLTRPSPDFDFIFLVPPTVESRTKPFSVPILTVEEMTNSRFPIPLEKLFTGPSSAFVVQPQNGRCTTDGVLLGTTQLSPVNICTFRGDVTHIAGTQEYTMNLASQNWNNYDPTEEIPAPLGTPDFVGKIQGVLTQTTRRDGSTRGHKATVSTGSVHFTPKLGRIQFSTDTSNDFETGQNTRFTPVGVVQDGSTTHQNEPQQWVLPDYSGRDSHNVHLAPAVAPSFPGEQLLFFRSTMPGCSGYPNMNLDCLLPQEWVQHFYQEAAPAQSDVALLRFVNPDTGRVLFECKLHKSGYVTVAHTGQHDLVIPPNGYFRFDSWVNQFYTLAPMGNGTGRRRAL

T4: GII.4/Houston VLP (norovirus …, UniProt P54635 1-539)
T4 construct: also called Hu/GII.4/Houston/TCH186/2002/US
T4 chain: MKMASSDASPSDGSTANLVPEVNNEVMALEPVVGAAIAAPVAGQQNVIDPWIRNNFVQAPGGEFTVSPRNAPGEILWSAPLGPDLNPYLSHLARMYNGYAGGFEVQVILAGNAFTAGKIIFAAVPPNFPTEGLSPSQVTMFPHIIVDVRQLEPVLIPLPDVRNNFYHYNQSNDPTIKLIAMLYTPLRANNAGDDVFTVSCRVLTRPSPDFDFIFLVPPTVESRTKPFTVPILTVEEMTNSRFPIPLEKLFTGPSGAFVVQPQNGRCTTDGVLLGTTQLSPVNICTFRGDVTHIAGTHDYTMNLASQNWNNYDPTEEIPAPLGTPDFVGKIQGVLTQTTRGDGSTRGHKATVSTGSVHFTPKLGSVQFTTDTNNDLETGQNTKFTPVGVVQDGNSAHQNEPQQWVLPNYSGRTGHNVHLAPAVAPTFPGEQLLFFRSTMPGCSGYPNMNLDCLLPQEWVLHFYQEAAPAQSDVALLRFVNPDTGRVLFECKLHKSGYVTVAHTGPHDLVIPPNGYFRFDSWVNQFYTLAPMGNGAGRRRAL

T5: GI.5 VLP (norovirus …)
T5 construct: also called GI.5 Siklos
T5 chain: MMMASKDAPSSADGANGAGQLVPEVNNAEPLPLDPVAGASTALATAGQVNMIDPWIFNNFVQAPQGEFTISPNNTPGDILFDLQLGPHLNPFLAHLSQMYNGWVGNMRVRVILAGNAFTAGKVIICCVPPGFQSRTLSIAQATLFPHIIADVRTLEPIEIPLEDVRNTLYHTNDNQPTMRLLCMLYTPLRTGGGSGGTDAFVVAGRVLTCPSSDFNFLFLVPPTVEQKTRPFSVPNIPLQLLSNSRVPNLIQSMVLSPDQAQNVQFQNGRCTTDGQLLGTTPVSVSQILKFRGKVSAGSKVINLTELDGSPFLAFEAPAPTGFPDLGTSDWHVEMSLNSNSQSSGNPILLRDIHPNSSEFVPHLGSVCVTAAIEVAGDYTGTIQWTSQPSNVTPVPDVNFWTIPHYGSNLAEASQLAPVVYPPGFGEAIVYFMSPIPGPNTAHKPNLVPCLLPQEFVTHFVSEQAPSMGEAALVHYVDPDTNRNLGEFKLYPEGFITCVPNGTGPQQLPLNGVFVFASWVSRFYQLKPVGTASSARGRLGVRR

B1: human mAb 1227 (antibody, V domains shown)
VH: QVQLVQSGGGMVQPGGSLSLSCAASGFTLSNYAMTWVRQAPGKGLEWVSSIGGSGGTTYYADSVKGRFTISRDSSMNTLYLQMSNLRAGDTAVYYCAKDKTRTLRLGYSGMDVWGQGTTVTVSS
VL: DIRLTQSPSSLSASVGDRVTITCRASQSISSYLNWYQQKPGKAPDLLIYGASSLQSGVPSRFSGSGSGTDFTLTISSLQPEDFGNYYCQQSFSTPRTFGQGTKVEL
notes: also called A1227
B2: human mAb 1431 (antibody, V domains shown)
VH: QVQLVQSGGGLVQPGGSLRLSCAASGFAFSNHGMHWVRQAPGKGLEWLSYISGSTGAIHYANSVKGRFTISRDNARNSLDLQMNSLGDEDTAVYYCARDGPRPDGTGYAGPSNDYWGQGTLVSVSS
VL: EIVLTQSPASLSLSPGERATLSCKASRSISIYLAWYQQKPGQAPRLLIYDASYRAIGIPARFSGSGSGTDFTLTISNLEPEDFAVYYCQHRSSWPALTFGGGTKVEI
notes: also called A1431
B3: human mAb 1431 (antibody, V domains shown)
VH: B2 VH
VL: B2 VL
notes: also called A1431

Legend:
GII.17/2015 VLP = biological target: T1, GII.17/2015 VLP; assay: multiplex microsphere immunoassay
GII.4/Sydney VLP [1] = biological target: T2, GII.4/Sydney VLP; assay: multiplex microsphere immunoassay
GII.4/Yerseke VLP = biological target: T3, GII.4/Yerseke VLP; assay: PGM blockade assay, serially diluted mAb
Method: (§1) Plates were washed 3 times with PBST before use. […] The mixture was transferred to the PGM-coated plates including VLP-only controls and incubation carried out for 1 h at 22° C. or 37° C. Following 3 washes with PBST, detection antibody specific for the corresponding VLP was added and the plates were incubated at room temperature for 1 h and then washed 3 times with PBST. […] Following 3 washes, enzyme substrate (ABTS, KPL) was added and allowed to react for 12 min at room temperature. ABTS Peroxidase Stop Solution (KPL) was then added and plates were read at a wavelength of 450 nm in a Molecular Devices plate reader using SoftMax Pro Software (Molecular Devices, Downingtown, PA, USA) to obtain the Optical Density (GD) of each well.
(§2) The following, day corresponding dilutions incubated with VLPs were transferred to the PGM-coated plates. The OD data was curve fit and blocking titers were calculated as the supernatant dilution interpolated at 1/2 the maximum OD for the plate. The blocking titers represent the supernatant dilution that produces a 50% reduction in VLP binding to PGM. The maximum OD for the plate was calculated from the VLP only control.

GII.4/Sydney VLP [2] = biological target: T2, GII.4/Sydney VLP; assay: PGM blockade assay, serially diluted mAb
Method: as §1, §2

GII.4/Houston VLP = biological target: T4, GII.4/Houston VLP; assay: PGM blockade assay, serially diluted mAb
Method: as §1, §2

GI.5 VLP = biological target: T5, GI.5 VLP; assay: multiplex microsphere immunoassay

Binder	EC50 (GII.17/2015 VLP) [µg/mL]	EC50 (GII.4/Sydney VLP [1]) [µg/mL]	blocking titer (GII.4/Yerseke VLP)	blocking titer (GII.4/Sydney VLP [2])	blocking titer (GII.4/Houston VLP)	binding result (GII.17/2015 VLP)	binding result (GI.5 VLP)
B1	0.012	0.012	–	–	–	–	–
B2	–	0.026	4850	7280	12100	no binding	–
B3	–	–	–	–	–	–	no binding
